Results reported in publication PMC10397247.
Values belong to the binder of their own block, whether it stands above or below them.

What was measured:
Assay in all cases: two-hybrid library CCmax;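 further: natural log of median RNA to DNA barcode read ratio; higher means stronger binding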
APC6088-AA = target: T1, APC6088-AA
T1 chain: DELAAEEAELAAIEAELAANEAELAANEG

APC8516-AA = target: T2, APC8516-AA; details: mean of both orientations
T2 chain: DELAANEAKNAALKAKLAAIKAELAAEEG

APC7524-AA = target: T3, APC7524-AA; details: mean of both orientations
T3 chain: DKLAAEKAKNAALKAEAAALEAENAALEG

APC9291-AA = target: T4, APC9291-AA; details: mean of both orientations
T4 chain: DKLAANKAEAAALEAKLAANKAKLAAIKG

APC9806-AA = target: T5, APC9806-AA; details: mean of both orientations
T5 chain: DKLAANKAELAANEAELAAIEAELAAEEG

APC8401-AA = target: T6, APC8401-AA; details: mean of both orientations
T6 chain: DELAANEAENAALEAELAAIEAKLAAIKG

APC9182-AA = target: T7, APC9182-AA; details: mean of both orientations
T7 chain: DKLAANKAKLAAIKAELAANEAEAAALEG

APC9141-AA = target: T8, APC9141-AA; details: mean of both orientations
T8 chain: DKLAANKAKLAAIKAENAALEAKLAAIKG

4H87-AA = target: T9, 4H87-AA; details: mean of both orientations
T9 chain: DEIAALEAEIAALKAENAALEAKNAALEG

4H816-AA = target: T10, 4H816-AA
T10 chain: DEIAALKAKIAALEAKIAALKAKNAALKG

4H2949-AA = target: T11, 4H2949-AA; details: mean of both orientations
T11 chain: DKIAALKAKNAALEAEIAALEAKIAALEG

4H717-AA = target: T12, 4H717-AA; details: mean of both orientations
T12 chain: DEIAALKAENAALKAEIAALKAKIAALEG

4H3112-AA = target: T13, 4H3112-AA; details: mean of both orientations
T13 chain: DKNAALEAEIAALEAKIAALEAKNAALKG

4H993-AA = target: T14, 4H993-AA; details: mean of both orientations
T14 chain: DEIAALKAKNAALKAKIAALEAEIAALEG

4H794-AA = target: T15, 4H794-AA; details: mean of both orientations
T15 chain: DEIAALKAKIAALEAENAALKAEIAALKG

4H3921-AA = target: T16, 4H3921-AA; details: mean of both orientations
T16 chain: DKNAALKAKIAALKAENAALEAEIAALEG

4H566-AA = target: T17, 4H566-AA; details: mean of both orientations
T17 chain: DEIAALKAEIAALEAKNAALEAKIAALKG

4H335-AA = target: T18, 4H335-AA; details: mean of both orientations
T18 chain: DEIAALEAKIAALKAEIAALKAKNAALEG

4H906-AA = target: T19, 4H906-AA; details: mean of both orientations
T19 chain: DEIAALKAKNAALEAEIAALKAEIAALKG

4H3655-AA = target: T20, 4H3655-AA; details: mean of both orientations
T20 chain: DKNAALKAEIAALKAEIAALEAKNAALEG

4H2642-AA = target: T21, 4H2642-AA
T21 chain: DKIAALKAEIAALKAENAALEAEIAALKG

4H2729-AA = target: T22, 4H2729-AA; details: mean of both orientations
T22 chain: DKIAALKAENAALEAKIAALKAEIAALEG

4H317-AA = target: T23, 4H317-AA; details: mean of both orientations
T23 chain: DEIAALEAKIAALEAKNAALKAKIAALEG

4H454-AA = target: T24, 4H454-AA; details: mean of both orientations
T24 chain: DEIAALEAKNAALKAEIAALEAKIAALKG

4H3343-AA = target: T25, 4H3343-AA; details: mean of both orientations
T25 chain: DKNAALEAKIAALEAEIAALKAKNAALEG

4H2883-AA = target: T26, 4H2883-AA; details: mean of both orientations
T26 chain: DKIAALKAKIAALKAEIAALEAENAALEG

4H3427-AA = target: T27, 4H3427-AA; details: mean of both orientations
T27 chain: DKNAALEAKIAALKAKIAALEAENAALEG

4H3606-AA = target: T28, 4H3606-AA; details: mean of both orientations
T28 chain: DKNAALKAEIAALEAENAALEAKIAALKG

4H3844-AA = target: T29, 4H3844-AA; details: mean of both orientations
T29 chain: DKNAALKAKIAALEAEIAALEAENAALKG

4H2944-AA = target: T30, 4H2944-AA; details: mean of both orientations
T30 chain: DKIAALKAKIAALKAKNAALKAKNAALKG

4H605-AA = target: T31, 4H605-AA; details: mean of both orientations
T31 chain: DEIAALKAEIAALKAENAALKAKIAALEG

4H2837-AA = target: T32, 4H2837-AA; details: mean of both orientations
T32 chain: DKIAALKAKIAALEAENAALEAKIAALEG

4H3627-AA = target: T33, 4H3627-AA; details: mean of both orientations
T33 chain: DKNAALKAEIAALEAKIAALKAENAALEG

4H342-AA = target: T34, 4H342-AA; details: mean of both orientations
T34 chain: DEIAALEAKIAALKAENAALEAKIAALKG

4H678-AA = target: T35, 4H678-AA; details: mean of both orientations
T35 chain: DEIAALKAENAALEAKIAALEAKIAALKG

4H2754-AA = target: T36, 4H2754-AA; details: mean of both orientations
T36 chain: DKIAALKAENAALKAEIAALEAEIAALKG

4H48-AA = target: T37, 4H48-AA; details: mean of both orientations
T37 chain: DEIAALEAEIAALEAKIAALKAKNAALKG

4H429-AA = target: T38, 4H429-AA; details: mean of both orientations
T38 chain: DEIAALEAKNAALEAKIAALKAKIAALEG

4H780-AA = target: T39, 4H780-AA; details: mean of both orientations
T39 chain: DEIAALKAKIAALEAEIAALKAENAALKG

4H881-AA = target: T40, 4H881-AA; details: mean of both orientations
T40 chain: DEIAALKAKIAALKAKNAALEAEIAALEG

interaction score (APC6088-AA): -1.3
interaction score (APC8516-AA): -2.19
interaction score (APC7524-AA): -1.52
interaction score (APC9291-AA): -1.58
interaction score (APC9806-AA): -1.36
interaction score (APC8401-AA): -1.56
interaction score (APC9182-AA): -1.84
interaction score (APC9141-AA): -1.67
B1: APC6088-AA (peptide)
chain: DELAAEEAELAAIEAELAANEAELAANEG

interaction score (4H87-AA): 0.567
interaction score (4H816-AA): 1.02
B2: 4H816-AA (peptide)
chain: DEIAALKAKIAALEAKIAALKAKNAALKG

interaction score (4H2949-AA): -0.263
interaction score (4H717-AA): -1.13
interaction score (4H3112-AA): -1.11
interaction score (4H993-AA): 1.73
interaction score (4H794-AA): 0.96
interaction score (4H3921-AA): -1.11
interaction score (4H566-AA): 1.3
interaction score (4H335-AA): -1.02
interaction score (4H906-AA): -1.72
interaction score (4H3655-AA): -1.24
interaction score (4H2642-AA): 2.07
interaction score (4H2729-AA): -0.868
interaction score (4H317-AA): 1.06
interaction score (4H454-AA): 0.982
interaction score (4H3343-AA): -1.7
interaction score (4H2883-AA): -0.642
interaction score (4H3427-AA): -1.25
interaction score (4H3606-AA): -0.298
interaction score (4H3844-AA): -1.28
interaction score (4H2944-AA): 0.299
interaction score (4H605-AA): 1.36
interaction score (4H2837-AA): -1
interaction score (4H3627-AA): -1.58
interaction score (4H342-AA): 1.85
interaction score (4H678-AA): -1.06
interaction score (4H2754-AA): -1.08
interaction score (4H48-AA): -0.661
interaction score (4H429-AA): -0.542
interaction score (4H780-AA): -1.24
interaction score (4H881-AA): 0.64
B3: 4H2642-AA (peptide)
chain: DKIAALKAEIAALKAENAALEAEIAALKG
